For orientation: EC50 (read off the curve) means the concentration at which the effect is half-maximal. Read a high EC50 (read off the curve) as weaker potency. A word on the IC50: it is the concentration at which inhibition is half-maximal. What is called Kd is the constant that tells how readily two partners part at equilibrium. Read a low Kd as tighter binding. What is called koff is the rate constant with which the complex falls apart. Low readings indicate a long-lived complex, high ones a short-lived complex. In general, kon refers to the second-order rate constant of association. Lower therefore signals slower complex formation.

For test [1], the target named is T1, human IL12Rβ1, cell-expressed (human, UniProt P42701 24-662).
T1 construct: whole, on cells; in the context of the heterodimeric receptor; also called IL12Rb1
As to the kind of experiment: flow cytometry on isolated CD8+ T cells of donor D863, anti-Flag detection.

Test [2] deals with T2, human IL12Rβ2 extracellular domain Fc-fusion (human, UniProt Q99665 24-622).
T2 construct: extracellular domain; bought; also called IL12Rβ2-Fc; hIL-12Rβ2-Fc
T2 sequence (looked up): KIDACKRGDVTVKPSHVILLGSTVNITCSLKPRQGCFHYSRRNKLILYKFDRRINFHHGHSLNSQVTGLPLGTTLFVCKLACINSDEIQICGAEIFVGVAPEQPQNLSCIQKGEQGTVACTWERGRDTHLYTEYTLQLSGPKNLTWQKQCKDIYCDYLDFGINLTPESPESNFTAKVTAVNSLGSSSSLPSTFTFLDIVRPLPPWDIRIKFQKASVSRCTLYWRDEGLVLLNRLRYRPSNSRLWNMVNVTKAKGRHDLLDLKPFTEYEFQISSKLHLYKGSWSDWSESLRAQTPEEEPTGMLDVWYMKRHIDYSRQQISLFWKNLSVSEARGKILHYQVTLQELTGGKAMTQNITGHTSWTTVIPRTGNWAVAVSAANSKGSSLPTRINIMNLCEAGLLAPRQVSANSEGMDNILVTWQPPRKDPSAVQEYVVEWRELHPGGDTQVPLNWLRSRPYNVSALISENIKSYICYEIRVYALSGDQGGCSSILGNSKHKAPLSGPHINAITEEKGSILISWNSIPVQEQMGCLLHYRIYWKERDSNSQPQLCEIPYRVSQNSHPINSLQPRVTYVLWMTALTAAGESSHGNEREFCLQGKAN
As to the kind of experiment: competition ELISA, ratio to monovalent IL12Rb2#1. A general note: In an ELISA, binding on a coated surface is turned into a signal by an enzyme label.

Test [3] deals with T3, human IL12Rβ2, cell-expressed (human, UniProt Q99665 24-862).
T3 sequence (looked up): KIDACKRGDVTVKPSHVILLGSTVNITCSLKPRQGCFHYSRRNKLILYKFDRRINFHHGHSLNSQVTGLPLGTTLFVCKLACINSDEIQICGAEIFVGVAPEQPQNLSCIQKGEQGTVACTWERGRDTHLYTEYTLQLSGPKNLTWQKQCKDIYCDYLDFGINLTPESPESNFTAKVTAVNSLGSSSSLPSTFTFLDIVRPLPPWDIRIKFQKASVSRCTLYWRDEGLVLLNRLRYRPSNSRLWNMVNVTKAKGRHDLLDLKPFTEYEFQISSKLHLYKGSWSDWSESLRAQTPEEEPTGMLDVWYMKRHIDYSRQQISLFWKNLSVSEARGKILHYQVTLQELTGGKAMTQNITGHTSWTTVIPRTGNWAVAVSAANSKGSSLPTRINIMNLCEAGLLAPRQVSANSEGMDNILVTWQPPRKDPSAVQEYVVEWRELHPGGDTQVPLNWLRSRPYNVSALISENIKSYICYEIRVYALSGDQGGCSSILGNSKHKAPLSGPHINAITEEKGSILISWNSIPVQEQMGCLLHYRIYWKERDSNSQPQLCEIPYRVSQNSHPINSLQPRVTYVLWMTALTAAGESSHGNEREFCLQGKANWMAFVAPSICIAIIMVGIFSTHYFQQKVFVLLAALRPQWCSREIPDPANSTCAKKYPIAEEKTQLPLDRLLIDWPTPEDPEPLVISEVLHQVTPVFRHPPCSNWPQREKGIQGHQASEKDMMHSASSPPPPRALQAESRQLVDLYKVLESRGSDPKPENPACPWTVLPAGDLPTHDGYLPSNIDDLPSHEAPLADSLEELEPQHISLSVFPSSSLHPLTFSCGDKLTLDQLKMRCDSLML
The experiment in a line: cell-based or functional assay.

Test [4] addresses T4, human CD4, cell-expressed (human, UniProt P01730 26-458).
T4 construct: whole, on cells
As to the kind of experiment: flow cytometry on MOLM-13 cells (CD4, no IL12R or IL23R), upper left panel.

For test [5], the target named is T4, human CD4, cell-expressed. As to the kind of experiment: flow cytometry on activated T cells of donor D838 (very high CD4, moderate IL12R), upper left panel.
Test [6] addresses T2, human IL12Rβ2 extracellular domain …. The experiment in a line: competition ELISA, coated IL-12 + IL12Rβ2-Fc.
Test [7] shares this target. The experiment in a line: competition ELISA, ratio to monovalent IL12Rb2#2.
Test [8] deals with T5, human IL-23R extracellular domain Fc-fusion (human, UniProt Q5VWK5 24-355).
T5 construct: extracellular domain; bought; also called IL-23R-Fc
T5 sequence (looked up): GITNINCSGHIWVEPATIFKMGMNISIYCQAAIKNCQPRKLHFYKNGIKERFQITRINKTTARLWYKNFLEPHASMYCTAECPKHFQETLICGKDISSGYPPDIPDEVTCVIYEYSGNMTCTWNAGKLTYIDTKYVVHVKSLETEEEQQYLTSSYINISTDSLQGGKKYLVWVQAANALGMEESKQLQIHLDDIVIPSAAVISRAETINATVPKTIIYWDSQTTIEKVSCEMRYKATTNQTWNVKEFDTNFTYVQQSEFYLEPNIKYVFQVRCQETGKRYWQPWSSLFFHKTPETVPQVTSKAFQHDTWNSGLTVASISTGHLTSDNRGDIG
As to the kind of experiment: competition ELISA, coated IL-23 + IL-23R-Fc.

Test [9] concerns the target T5, human IL-23R extracellular domain …. The experiment in a line: competition ELISA, coated IL-23 + 5 nM IL-23R-Fc.
Test [10] has the same target. As to the kind of experiment: SPR Biacore T100, captured IL-23R-Fc. For orientation: Surface plasmon resonance follows binding to a sensor surface in real time, without labels.
Test [11] deals with T4, human CD4, cell-expressed. The experiment in a line: flow cytometry on MOLM-13 cells (CD4, no IL12R or IL23R), upper right panel. In general terms: In flow cytometry, cells or beads pass a laser one at a time.
The target of test [12] is T6, human IL12Rβ1 extracellular domain Fc-fusion (human, UniProt P42701 24-545).
T6 construct: extracellular domain; bought; also called IL12Rβ1-Fc; hIL-12Rβ1-Fc; not shown: Fc part, captured by anti-hIgG
The experiment in a line: SPR Biacore T100, captured IL12Rβ1-Fc.

Test [13] addresses T1, human IL12Rβ1, cell-expressed. The experiment in a line: cell-based or functional assay.
Test [14] shares this target. The experiment in a line: cell-based or functional assay. The source holds these as a separate data set.
In test [15] the target is T6, human IL12Rβ1 extracellular domain …. As to the kind of experiment: competition ELISA, coated IL-23 + IL12Rβ1-Fc.
Test [16] has the same target. As to the kind of experiment: competition ELISA, coated IL-12 + 2 nM IL12Rβ1-Fc.
Test [17] has the same target. As to the kind of experiment: competition ELISA, coated IL-12 + IL12Rβ1-Fc.
Test [18] deals with T4, human CD4, cell-expressed. The experiment in a line: flow cytometry on MOLM-13 cells (CD4, no IL12R or IL23R), lower left panel.
Test [19] has as its target T6, human IL12Rβ1 extracellular domain …. The experiment in a line: competition ELISA, coated IL-23 + 2 nM IL12Rβ1-Fc.

B1: IL12Rb2#1-35GS-CD4#8 (bispecific antibody)
chain: EVQLVESGGRLVQAGDSLRLSCAASGRTFISYRMGWFRQAPGKEREFVAALRWSSSNIDYTYYADSVKGRFSISGDYAKNTVYLQMNSLKAEDTAVYYCAASTRWGVMESDTEYTSWGQGTLVTVSSGGGGSGGGGSGGGGSGGGGSGGGGSGGGGSGGGGSEVQLVESGGGSVQPGGSLTLSCGTSGRTFNVMGWFRQAPGKEREFVAAVRWSSTGIYYTQYADSVKSRFTISRDNAKNTVYLEMNSLKPEDTAVYYCAADTYNSNPARWDGYDFRGQGTLVTVSS
notes: defined by its make-up (Nb1-Nb2)
For B1, in test [1], the binding result is recorded as “no binding (tested: 250 nM)”. For the same molecule, the fold ctrl in test [2] amounted to 0.9 fold. Moreover, in [3], the “IC50, IFNγ release, PBMC D840” value was 1.1 nM; the “IC50, IFNγ release, T cells D839” value was found to be 0.11 nM; the “fold ctrl, IFNγ release, PBMC D840” value is 11 fold; the “fold ctrl, IFNγ release, T cells D839” value came to 400 fold. The 50% effective concentration (EC50 (read off the curve)) in test [4] is approximately 1 nM. For the same molecule, the 50% effective concentration (EC50 (read off the curve)) in test [5] was approximately 1 nM. Moreover, the IC50 in test [6] was found to be 4.8 nM.

B2: IL12Rb2#2-35GS-CD4#8 (bispecific antibody)
chain: EVQLVESGGRLVQAGDSLRLSCAASGRTFTSYRMGWFRQAPGKEREFVSALRWSSGNIDYTYYADSVKGRFSISGDYAKNTVYLQMNSLKAEDTAVYYCAASTRWGVMESDTEYTSWGQGTLVTVSSGGGGSGGGGSGGGGSGGGGSGGGGSGGGGSGGGGSEVQLVESGGGSVQPGGSLTLSCGTSGRTFNVMGWFRQAPGKEREFVAAVRWSSTGIYYTQYADSVKSRFTISRDNAKNTVYLEMNSLKPEDTAVYYCAADTYNSNPARWDGYDFRGQGTLVTVSS
notes: defined by its make-up
Consider B2, for which, in [3], the “IC50, IFNγ release, PBMC D840” value is 1.6 nM; the “IC50, IFNγ release, T cells D839” value was 0.031 nM; the “fold ctrl, IFNγ release, PBMC D840” value is 30 fold; the “fold ctrl, IFNγ release, T cells D839” value was 1130 fold. Also, the “EC50 (read off the curve)” value in test [4] is approximately 1 nM. The concentration for a half-maximal effect (EC50 (read off the curve)) in test [5] is approximately 1 nM. Further, the fold ctrl in [7] amounted to 1.4 fold. The IC50 in test [6] amounted to 11 nM.

B3: IL23R#20: 150H07 (VHH)
VHH: EVQLVESGGGLVQAGGSLRLSCAASGRTFSSYAMGWFRQAPGKDREFVAAISWIGESTYYADSVKGRFTISRDNAKNTVYLRMNSLKPEDTAVYYCAADLYYTAYVAAADEYDYWGQGTLVTVSS
notes: bispecifics print NAKNTVY where this entry prints NAKNIVY; also called LG150H07
As to B3, in test [8], the IC50 came out at 16 nM. Besides, the IC50 in test [9] is 16 nM. In addition, in [10], the Kd amounted to 78 nM, the koff was found to be 0.23 s⁻¹ and the kon was found to be 3e+06 M⁻¹ s⁻¹. The binding result in test [11] is “no binding (tested: 1E-6 M)”.

B4: IL12Rb1#31: 148F09 (VHH)
VHH: EVQLVESGGGLVQTGGSLRLSCAASGRTPSIIAMGWFRQTPGKEREFVGEIILSKGFTYYADSVKGRFTISRANAKNTITMYLQMNSLKSEDTAVYYCAARQNWSGNPTRTNEYEYWGQGTLVTVSS
notes: also called IL12Rβ1#31; LG148F09
In test [12], B4 returned a Kd of 23 nM. Moreover, in test [12], the koff was 0.017 s⁻¹. In test [12], this molecule yielded a kon of 720000 M⁻¹ s⁻¹. Moreover, the “IC50, IL-17 release, PBMC D840” value in test [13] was determined as 210 nM. Also, in [14], the “IC50, IFNγ release, PBMC D840” value was determined as 93.5 nM. Moreover, the IC50 in test [15] stood at 10 nM; in test [16], 22 nM; in test [17], 22 nM; in test [19], 10 nM. Moreover, the binding result in [18] is listed as “no binding (tested: 1E-6 M)”.

B5: CD4#8-35GS-IL12Rb2#1 (bispecific antibody)
chain: EVQLVESGGGSVQPGGSLTLSCGTSGRTFNVMGWFRQAPGKEREFVAAVRWSSTGIYYTQYADSVKSRFTISRDNAKNTVYLEMNSLKPEDTAVYYCAADTYNSNPARWDGYDFRGQGTLVTVSSGGGGSGGGGSGGGGSGGGGSGGGGSGGGGSGGGGSEVQLVESGGRLVQAGDSLRLSCAASGRTFISYRMGWFRQAPGKEREFVAALRWSSSNIDYTYYADSVKGRFSISGDYAKNTVYLQMNSLKAEDTAVYYCAASTRWGVMESDTEYTSWGQGTLVTVSS
notes: defined by its make-up
For B5, the fold ctrl in test [2] was found to be 0.4 fold. Further, in test [3], the “IC50, IFNγ release, PBMC D840” value was determined as 1.9 nM; the “IC50, IFNγ release, T cells D839” value came out at 0.78 nM; the “fold ctrl, IFNγ release, PBMC D840” value stood at 8 fold; the “fold ctrl, IFNγ release, T cells D839” value stood at 74 fold. In addition, the “EC50 (read off the curve)” value in test [4] is approximately 1 nM. For the same molecule, the “EC50 (read off the curve)” value in test [5] was approximately 1 nM. The IC50 in [6] worked out at 10 nM.

The values above are taken from patent US20160251440A1 (Ablynx, published 2016).
